Here are results for 1 substance from patent US20030176678A1.

The assay concerns the target intact IFNAR1 from human cells (IFNAR1 chain of the type I interferon receptor) (human) (UniProt P17181). In words: cell-based or functional assay.

Bounds are passed on as bounds.

UniProt P17181, sequence (P17181 28-557): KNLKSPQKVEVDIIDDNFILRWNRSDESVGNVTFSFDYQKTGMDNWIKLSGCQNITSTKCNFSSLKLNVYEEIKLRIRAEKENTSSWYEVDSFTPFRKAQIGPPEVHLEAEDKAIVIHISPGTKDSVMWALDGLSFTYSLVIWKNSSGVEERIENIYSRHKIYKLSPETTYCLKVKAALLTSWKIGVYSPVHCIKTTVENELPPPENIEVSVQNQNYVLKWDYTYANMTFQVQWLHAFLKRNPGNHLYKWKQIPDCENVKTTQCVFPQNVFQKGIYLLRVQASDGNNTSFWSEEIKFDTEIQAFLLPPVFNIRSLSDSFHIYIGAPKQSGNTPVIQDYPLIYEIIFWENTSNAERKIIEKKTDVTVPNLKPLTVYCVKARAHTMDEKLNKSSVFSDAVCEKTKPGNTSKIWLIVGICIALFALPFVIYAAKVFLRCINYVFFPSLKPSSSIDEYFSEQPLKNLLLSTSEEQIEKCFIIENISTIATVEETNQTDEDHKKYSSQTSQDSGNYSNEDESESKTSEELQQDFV

On to “IR1B4/PRMT enzyme (endogenous protein of human myeloma U266S cells) (from UniProt Q99873 11-371)”, for which the reduction in the growth inhibitory effect of IFN-β on myeloma U266S cells by antisense-1 oligonucleotide (Alamar Blue) is less than 5 fold.
